Assays:
Type in all cases: biochemical
SOD1(A4V) [1] = molecular target: T1, SOD1(A4V) (Homo sapiens, UniProt P00441, A5V); assay: Filter retardation assay of SOD1(A4V); details: 25 d at 37° C.
T1 construct: polyHis; made in house; host or cells: E. coli Origami 2(DE3)
Method: (§1) SOD1 or mutants thereof were overexpressed from the appropriate pET-SOD1 or PASK-SOD1 vectors in E. coli Origami 2(DE3) cells in LB medium containing 50 μg/mL kanamycin (for pET-SOD1) or 100 μg/mL ampicillin (for pASK-SOD1), 200 μM CuCl2, and 200 μM ZnCl2 by the addition of 0.01 mM IPTG (for pET-SOD1) or 0.2 μg/mL anhydrotetracycline (aTc) (for pASK-SOD1), either at 37° C. for 2-3 h or at 18° C. for about 16 h. Origami 2(DE3) cells were utilized in order to provide an oxidizing cytoplasmic environment in order to promote correct formation of disulfide bonds, which are required for proper SOD1 folding and function. Under these conditions, bacterially produced SOD1 is produced in dimeric and enzymatically active form, while it simultaneously co-exists with misfolded, soluble and insoluble SOD1 oligomeric/aggregated species (FIG. 3C). Thus, the acquired protein is found in a state that resembles the conditions encountered in human cells under stressful or pathogenic conditions. The appearance of misfolded SOD1 oligomers/aggregates is enhanced with increasing incubation temperatures. […]

SOD1(A4V) [2] = molecular target: T1, SOD1(A4V); assay: Circular dichroism of isolated SOD1(A4V) with cyclic peptide; details: 40 μM SOD1(A4V), 25° C., 90 d
Method: as §1, with “3C).” for “3C). Thus, the acquired protein is found in a state that resembles the conditions encountered in human cells under stressful or pathogenic conditions. The appearance of misfolded SOD1 oligomers/aggregates is enhanced with increasing incubation temperatures.”
Appropriate amounts of synthetic cyclic peptides were added to either 40 μM SOD1(A4V) or 50 μM Aβ solutions at the desired cyclic peptide:target protein molar ratio. SOD1(A4V) structural changes were monitored for 90 d at 25° C., under quiescent conditions. Aβ structural changes were monitored for 30 d at 33° C. under quiescent conditions. CD spectra in the range 190-260 nm were recorded on a JASCO J-715 spectropolarimeter (Jasco Co., Japan) using quartz cuvettes with 1 mm path length. […]

SOD1(A4V) [3] = molecular target: T1, SOD1(A4V); assay: Thioflavin T staining of SOD1(A4V); details: 90 d at 25° C.
Method: as §1, with “conditions.” for “conditions. The appearance of misfolded SOD1 oligomers/aggregates is enhanced with increasing incubation temperatures.”
40 μM SOD1(A4V) solutions, aged for 90 d at 25° C., with or without the selected synthetic peptides, were diluted to 10 μM with PBS. […] The mixture was agitated adequately by pipetting and immediately thereafter, fluorescence was monitored with excitation at 440 nm (EM slit=2.5 nm, PMT Voltage 700 V, response 0.4 s) using a HITACHI F-2500 (Japan) spectrofluorometer.

Aβ42 = molecular target: T2, Aβ42 (Homo sapiens, UniProt P05067); assay: Thioflavin T dye-binding assay of Aβ42; details: 30-d aged CD solutions
T2 construct: one of the secondary products yields a 42-amino-acid-long peptide (Aβ42); purchased Eurogentec, Belgium; host or cells: chemical synthesis
Method: For Aβ ThT staining, 100 μL of the 30-d aged 50 μM CD solutions were diluted in PBS (10 mM, pH 7.33) to form a 25 μM Aβ solution with 200 μL final volume. 2.5 μL from a stock solution of ThT (Sigma-Aldrich, USA) in PBS (10 mM, pH 7.33) was added to the prepared Aβ solutions to achieve a final ThT concentration of 5 μM. The mixture was agitated adequately by pipetting and immediately thereafter, fluorescence was monitored with excitation at 440 nm (EM slit=2.5 nm, PMT Voltage 700 V, response 0.4 s) using a HITACHI F-2500 (Japan) spectrofluorometer.

SOD1(A4V) [4] = molecular target: T1, SOD1(A4V); assay: Dynamic light scattering of SOD1(A4V) with cyclic peptide; details: room temperature, 60 d
Method: as §1
The sizes of the SOD1 particles were measured using a Zetasizer NanoZS90 (Malvern) instrument. […]

T1 sequence (P00441 whole entry A5V): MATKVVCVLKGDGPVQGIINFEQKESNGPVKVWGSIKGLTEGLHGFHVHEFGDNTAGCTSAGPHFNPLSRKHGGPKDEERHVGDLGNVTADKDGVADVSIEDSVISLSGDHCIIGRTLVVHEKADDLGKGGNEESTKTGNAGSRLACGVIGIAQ

cyclo-TWSVW (cyclic) [SOD1C5-4]
formation of large, amyloid-like SOD1(A4V) aggregates by filter retardation assay (SOD1(A4V) [1]): dramatically decreased
time-dependent conformational transition indicative of SOD1(A4V) aggregation (SOD1(A4V) [2]): significantly delayed
interaction with SOD1(A4V) by CD spectroscopy (SOD1(A4V) [2]; 1:1 and 5:1 peptide:SOD1(A4V)): interacts with SOD1(A4V)
formation of large, amyloid-like SOD1(A4V) aggregates by ThT staining (SOD1(A4V) [3]): dramatically decreased
extent of Aβ42 amyloid fibril formation (ThT) (Aβ42): did not have any effect
size of oligomeric/aggregated SOD1(A4V) species (DLS) (SOD1(A4V) [4]): markedly smaller sizes

From US12559863B2, “Macrocyclic modulators of disease associated protein misfolding and aggregation” (RESQ BIOTECH, priority 2017, dated 2026)
